Data on one protein can be found in paper PMC8850444, “The lipid components of high-density lipoproteins (HDL) are essential for the binding and transportation of antimicrobial peptides in human serum” (Scientific Reports, 2022).

In general, stoichiometry N refers to a count of units in the complex or per binding partner.

This series deals with the molecule itself. In words: non-reducing SDS-PAGE; serum proteins pulled down by immobilised LL37, 15% non-reducing SDS-PAGE, Coomassie; monomer to dimer.

B1: apolipoprotein A-II (Apo-AII) of human serum (natural protein)
chain: not shown
notes: Dimeric under non-reducing conditions; In serum it stands in HDL particles together with lipids; also called 17 kDa protein; source: endogenous, crude human serum
Turning to B1, the “stoichiometry N” value worked out at 2.
